The source of these data is PMC4226571, “The E6AP Binding Pocket of the HPV16 E6 Oncoprotein Provides a Docking Site for a Small Inhibitory Peptide Unrelated to E6AP, Indicating Druggability of E6” (PLoS ONE, 2014).

Entries after “also recorded” stand apart in the source; their conditions may differ.

The test system of one experiment is wt HPV16 E6. Description: Mammalian two-hybrid assay, wt HPV16 E6. The format is cell-based. The conditions noted are these: HeLa; peptide-GAL4-BD + wt HPV16 E6-VP16-AD; relative to pACT control = 1.0; three experiments in duplicate. The source says: Results were obtained from three individual experiments, each performed in duplicates. Standard deviations are indicated. Asterisks above horizontal lines indicate statistically significant differences from pACT-transfected cells, with p-values of ≤0.001 (***). […] The horizontal line indicates 1.5-fold inhibition. Individual amino acid exchanges are indicated below each column. Error bars indicate standard deviation values. (D) Statistical analysis of the differential binding behaviour of HPV16 E6 mutants 16E6R55A and 16E6Y70A. […] Asterisks above the horizontal lines indicate statistically significant reductions of luciferase activities, with p-values of ≤0.01 (**) or ≤0.001 (***). Error bars indicate standard deviation values.
HeLa (HPV18-positive) and MRI-H-186 (HPV16-positive) cervical carcinoma cells, and H1299 lung cancer cells were grown in DMEM (pH 7.2), supplemented with 10% fetal bovine serum (Gibco Life Technologies, Carlsbad, CA, USA), 2 mM L-glutamine, 100 U/ml penicillin and 100 µg/ml streptomycin (Sigma-Aldrich, Saint Lois, MO). Plasmids were transfected by calcium phosphate co-precipitation as described. […] E6 constructs used in Figure 7C contain an additional flag-tag between E6 and the VP16-AD. Mutant derivatives of HPV16, HPV18 and HPV31 E6, as specified in the text, were generated by site directed mutagenesis and verified by DNA sequencing. […]

A further experiment deals with HPV16 E6. The conditions noted are these: ref [17]; cited from earlier work. The source says:
In previous work, we therefore followed an alternative strategy to screen for E6 inhibitors. […] In order to identify possible structural determinants for this discrepancy, we compared the amino acid sequences of the contact region in HPV16 E6 with the corresponding domain of HPV18 E6.

Experiment [1] addresses T1, pep11** fused to the GAL4 DNA binding domain.
T1 construct: also called pep11**-GAL4-BD
T1 chain: KEKEEYNSNCSCIACIGLI
Description: two-hybrid. The settings on record: partners not purified.

Experiment [2] concerns the target T2, E6APpep fused to the GAL4 DNA binding domain (human).
T2 construct: The functional row used hrGFP-E6APpep; also called E6APpep-GAL4-BD
T2 chain: IPESSELTLQELLGEERR
Description: two-hybrid; mammalian two-hybrid (CheckMate) in HeLa cells; peptides fused to GAL4-BD (pBIND), E6 proteins fused to VP16-AD (pACT); luciferase reporter pG5luc, normalized for pCMV-Gal. The settings on record: partners not purified. For orientation: Reporter assays use an easily measured gene product as a stand-in for the process of interest.

Experiment [3] has as its target T3, wildtype HPV16 E6 fused to the VP16 transcriptional activation domain, P03126.
T3 chain: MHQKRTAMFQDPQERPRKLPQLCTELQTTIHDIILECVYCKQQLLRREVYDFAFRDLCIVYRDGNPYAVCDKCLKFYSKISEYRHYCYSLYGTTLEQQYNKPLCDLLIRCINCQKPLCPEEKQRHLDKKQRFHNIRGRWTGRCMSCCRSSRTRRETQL
The experiment in a line: mammalian two-hybrid. The settings on record: chain shown with the change; HeLa cells; parent: est. 19; read off a plot.

As for KEKEEYNSNSSSIASIGLI [pep11**m], the “increase of luciferase activity (intracellular E6/peptide binding)” value in the experiment on wt HPV16 E6 is given as “did not stimulate luciferase activities; also recorded: does not bind to HPV16 E6”. In the experiment on HPV16 E6, the “binding to HPV16 E6 (in words)” value is reported as “defective for E6 binding”.

B1: wildtype HPV16 E6 fused to the VP16 transcriptional activation domain (natural protein)
chain: T3 chain
notes: source: HeLa, transfected (vector pACT), mammalian two-hybrid fusion
For B1, the figures for the “fold increase of luciferase activity over control-transfected cells” value in experiment [1] and in experiment [2] were roughly 19 fold and roughly 3 fold, respectively.

As for KEKEEYNSNSSSIASIGLI [pep11** fused to the GAL4 DNA binding domain pep11**m], the response in experiment [3] was determined as 1 RLA.
